Assay results taken from patent publication US20080085863A1 (WISCONSIN ALUMNI RESEARCH FOUNDATION, published 2008).

T1: Flag-tagged recombinant bone morphogenetic protein-1 (BMP-1) (UniProt P13497-2 121-730, limits assumed)
T1 sequence (looked up): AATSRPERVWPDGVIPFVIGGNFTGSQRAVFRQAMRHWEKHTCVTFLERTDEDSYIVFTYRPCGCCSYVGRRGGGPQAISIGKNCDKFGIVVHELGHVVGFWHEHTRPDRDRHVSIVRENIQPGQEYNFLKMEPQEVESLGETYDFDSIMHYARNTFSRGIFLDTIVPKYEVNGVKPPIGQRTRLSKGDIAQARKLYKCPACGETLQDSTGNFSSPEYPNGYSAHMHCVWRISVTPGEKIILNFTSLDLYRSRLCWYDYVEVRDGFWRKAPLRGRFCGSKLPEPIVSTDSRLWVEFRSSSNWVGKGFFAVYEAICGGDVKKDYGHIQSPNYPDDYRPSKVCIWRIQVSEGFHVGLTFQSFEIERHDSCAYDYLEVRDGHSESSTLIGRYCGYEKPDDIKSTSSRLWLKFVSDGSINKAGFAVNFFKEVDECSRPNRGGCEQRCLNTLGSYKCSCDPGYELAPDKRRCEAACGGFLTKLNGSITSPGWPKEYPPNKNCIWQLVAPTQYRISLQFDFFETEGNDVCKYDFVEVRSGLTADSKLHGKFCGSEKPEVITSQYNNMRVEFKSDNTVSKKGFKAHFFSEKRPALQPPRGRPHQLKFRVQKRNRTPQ


What was measured:
[1] = target: T1, Flag-tagged recombinant bone …; test: cell-based or functional assay
[2] = target: T1, Flag-tagged recombinant bone …; test: time course of covalent complex formation of 40 nM 35S-BMP-1 with increasing α2M, SDS-PAGE densitometry (method of Enghild et al.)
Experimental: 40 nM ³⁵S-labeled BMP-1 was incubated with 20, 40, 80, 160, and 240 nM plasma α₂M, or recombinant wild type α₂M or with 5, 10, 20, 40, and 80 nM b-α₂M at 37° C. in 50 mM Tris-HCl, pH 7.5, 100 mM NaCl and 10 mM CaCl₂. Reactions were stopped at 10, 30, 60, 90 and 120 minutes (plasma α₂M and recombinant wild type α₂M), or at 2, 5, 10, 20 and 30 minutes (b-α₂M) by adding. SDS-PAGE sample buffer and boiling 5 minutes at 95° C. Protein samples were separated on 7.5% acrylamide SDS-PAGE gels, which were then treated with EN³HANCE (DuPont) and exposed to film. Percentages of BMP-1 incorporated into high molecular weight complexes were determined by densitometry and kinetic parameters were determined essentially via the method of Enghild J, et al, “Interaction of human rheumatoid synovial collagenase (matrix metalloproteinase 1) and stromelysin (matrix metalloproteinase 3) with human alpha 2-macroglobulin and chicken ovostatin. Binding kinetics and identification of matrix metalloproteinase cleavage sites,” J. Biol. Chem. 264:8779-8785 (1989).
To obtain a quantitative comparison of the rates of interaction of BMP-1 with the various wild type and mutant forms of α₂M, we employed the methodology of Enghild et al., supra, which involves quantification of covalent proteinase-α₂M complex formation, subsequent to incubation of radiolabeled proteinase with α₂M.

Binder	inhibition of BMP-1 pCP activity (cleavage of 3H-radiolabeled type I procollagen), IC50 [1] [nM]	Ki [2] [nM]	pCP inhibitory activity, IC50 [1] [nM]
human α2-macroglobulin from plasma (Sigma-Aldrich) (other, Bought plasma protein; also called plasma α2M; serum α2M) SVSGKPQYMVLVPSLLHTETTEKGCVLLSYLNETVTVSASLESVRGNRSLFTDLEAENDVLHCVAFAVPKSSSNEEVMFLTVQVKGPTQEFKKRTTVMVKNEDSLVFVQTDKSIYKPGQTVKFRVVSMDENFHPLNELIPLVYIQDPKGNRIAQWQSFQLEGGLKQFSFPLSSEPFQGSYKVVVQKKSGGRTEHPFTVEEFVLPKFEVQVTVPKIITILEEEMNVSVCGLYTYGKPVPGHVTVSICRKYSDASDCHGEDSQAFCEKFSGQLNSHGCFYQQVKTKVFQLKRKEYEMKLHTEAQIQEEGTVVELTGRQSSEITRTITKLSFVKVDSHFRQGIPFFGQVRLVDGKGVPIPNKVIFIRGNEANYYSNATTDEHGLVQFSINTTNVMGTSLTVRVNYKDRSPCYGYQWVSEEHEEAHHTAYLVFSPSKSFVHLEPMSHELPCGHTQTVQAHYILNGGTLLGLKKLSFYYLIMAKGGIVRTGTHGLLVKQEDMKGHFSISIPVKSDIAPVARLLIYAVLPTGDVIGDSAKYDVENCLANKVDLSFSPSQSLPASHAHLRVTAAPQSVCALRAVDQSVLLMKPDAELSASSVYNLLPEKDLTGFPGPLNDQDDEDCINRHNVYINGITYTPVSSTNEKDMYSFLEDMGLKAFTNSKIRKPKMCPQLQQYEMHGPEGLRVGFYESDVMGRGHARLVHVEEPHTETVRKYFPETWIWDLVVVNSAGVAEVGVTVPDTITEWKAGAFCLSEDAGLGISSTASLRAFQPFFVELTMPYSVIRGEAFTLKATVLNYLPKCIRVSVQLEASPAFLAVPVEKEQAPHCICANGRQTVSWAVTPKSLGNVNFTVSAEALESQELCGTEVPSVPEHGRKDTVIKPLLVEPEGLEKETTFNSLLCPSGGEVSEELSLKLPPNVVEESARASVSVLGDILGSAMQNTQNLLQMPYGCGEQNMVLFAPNIYVLDYLNETQQLTPEIKSKAIGYLNTGYQRQLNYKHYDGSYSTFGERYGRNQGNTWLTAFVLKTFAQARAYIFIDEAHITQALIWLSQRQKDNGCFRSSGSLLNNAIKGGVEDEVTLSAYITIALLEIPLTVTHPVVRNALFCLESAWKTAQEGDHGSHVYTKALLAYAFALAGNQDKRKEVLKSLNEEAVKKDNSVHWERPQKPKAPVGHFYEPQAPSAEVEMTSYVLLAYLTAQPAPTSEDLTSATNIVKWITKQQNAQGGFSSTQDTVVALHALSKYGAATFTRTGKAAQVTIQSSGTFSSKFQVDNNNRLLLQQVSLPELPGEYSMKVTGEGCVYLQTSLKYNILPEKEEFPFALGVQTLPQTCDEPKAHTSFQISLSVSYTGSRSASNMAIVDVKMVSGFIPLKPTVKMLERSNHVSRTEVSSNHVLIYLDKVSNQTLSLFFTVLQDVPVRDLKPAIVKVYDYYETDEFAIAEYNAPCSKDLGNA	4.8	25.2	
recombinant wild type α2-macroglobulin (FLAG-tagged) (other, not shown: small tags and cut ends, Expressed in 293 T-REx cells with the native signal peptide replaced by the BM40 signal peptide; also called rα2M; recombinant α2M) SVSGKPQYMVLVPSLLHTETTEKGCVLLSYLNETVTVSASLESVRGNRSLFTDLEAENDVLHCVAFAVPKSSSNEEVMFLTVQVKGPTQEFKKRTTVMVKNEDSLVFVQTDKSIYKPGQTVKFRVVSMDENFHPLNELIPLVYIQDPKGNRIAQWQSFQLEGGLKQFSFPLSSEPFQGSYKVVVQKKSGGRTEHPFTVEEFVLPKFEVQVTVPKIITILEEEMNVSVCGLYTYGKPVPGHVTVSICRKYSDASDCHGEDSQAFCEKFSGQLNSHGCFYQQVKTKVFQLKRKEYEMKLHTEAQIQEEGTVVELTGRQSSEITRTITKLSFVKVDSHFRQGIPFFGQVRLVDGKGVPIPNKVIFIRGNEANYYSNATTDEHGLVQFSINTTNVMGTSLTVRVNYKDRSPCYGYQWVSEEHEEAHHTAYLVFSPSKSFVHLEPMSHELPCGHTQTVQAHYILNGGTLLGLKKLSFYYLIMAKGGIVRTGTHGLLVKQEDMKGHFSISIPVKSDIAPVARLLIYAVLPTGDVIGDSAKYDVENCLANKVDLSFSPSQSLPASHAHLRVTAAPQSVCALRAVDQSVLLMKPDAELSASSVYNLLPEKDLTGFPGPLNDQDDEDCINRHNVYINGITYTPVSSTNEKDMYSFLEDMGLKAFTNSKIRKPKMCPQLQQYEMHGPEGLRVGFYESDVMGRGHARLVHVEEPHTETVRKYFPETWIWDLVVVNSAGVAEVGVTVPDTITEWKAGAFCLSEDAGLGISSTASLRAFQPFFVELTMPYSVIRGEAFTLKATVLNYLPKCIRVSVQLEASPAFLAVPVEKEQAPHCICANGRQTVSWAVTPKSLGNVNFTVSAEALESQELCGTEVPSVPEHGRKDTVIKPLLVEPEGLEKETTFNSLLCPSGGEVSEELSLKLPPNVVEESARASVSVLGDILGSAMQNTQNLLQMPYGCGEQNMVLFAPNIYVLDYLNETQQLTPEIKSKAIGYLNTGYQRQLNYKHYDGSYSTFGERYGRNQGNTWLTAFVLKTFAQARAYIFIDEAHITQALIWLSQRQKDNGCFRSSGSLLNNAIKGGVEDEVTLSAYITIALLEIPLTVTHPVVRNALFCLESAWKTAQEGDHGSHVYTKALLAYAFALAGNQDKRKEVLKSLNEEAVKKDNSVHWERPQKPKAPVGHFYEPQAPSAEVEMTSYVLLAYLTAQPAPTSEDLTSATNIVKWITKQQNAQGGFSSTQDTVVALHALSKYGAATFTRTGKAAQVTIQSSGTFSSKFQVDNNNRLLLQQVSLPELPGEYSMKVTGEGCVYLQTSLKYNILPEKEEFPFALGVQTLPQTCDEPKAHTSFQISLSVSYTGSRSASNMAIVDVKMVSGFIPLKPTVKMLERSNHVSRTEVSSNHVLIYLDKVSNQTLSLFFTVLQDVPVRDLKPAIVKVYDYYETDEFAIAEYNAPCSKDLGNA		39.5	133
